Data on seven substances can be found in the supplement of paper PMC5998384.

For data set [1], the system named is HeLa Kyoto. The data set is described as follows: thermal stability score vs G1/S (z-score of summed log2 fold changes over temperatures); higher = more thermally stable than in G1/S.
The test system of data set [2] is HeLa Kyoto. As to the kind of experiment: solubility change mitosis vs G1/S (difference of NP-40 vs SDS log2 ratios) (log2 ratio difference); higher = more soluble in mitosis.
The test system of data set [3] is HeLa Kyoto. As to the kind of experiment: solubility in G1/S (NP-40 vs SDS abundance) (log2 ratio); higher = more soluble. The following applies: cell cycle stage: G1/S.
Where [4] appears, read: cell cycle stage: early G1 (4.5 h after nocodazole release).
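For solubility change mitosis vs G1/S (difference of NP-40 vs SDS log2 ratios) in this document: synchronized HeLa Kyoto cells (double thymidine block for G1/S, nocodazole release for mitosis), protein amounts in NP-40 versus SDS lysates quantified by mass spectrometry, three biological replicates.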
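For solubility in G1/S (NP-40 vs SDS abundance) in this document: HeLa Kyoto cells arrested at G1/S by double thymidine block, proteins quantified by TMT10plex mass spectrometry in mild NP-40 versus SDS extracts, three biological replicates.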
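For thermal stability score vs G1/S (z-score of summed log2 fold changes over temperatures) in this document: synchronized HeLa Kyoto cells, proteins quantified by TMT10plex mass spectrometry, three biological replicates, mitosis taken 0.5 h after nocodazole release, G1/S directly after double thymidine block.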

In the case of “MRPPACWWLLAPPALLALLTCSLAFGLASEDTKKEVKQSQDLEKSGISRKNDIDLKGIVFVIQSQSNSFHAKRAEQLKKSILKQAADLTQELPSVLLLHQLAKQEGAWTILPLLPHFSVTYSRNSSWIFFCEEETRIQIPKLLETLRRYDPSKEWFLGKALHDEEATIIHHYAFSENPTVFKYPDFAAGWALSIPLVNKLTKRLKSESLKSDFTIDLKHEIALYIWDKGGGPPLTPVPEFCTNDVDFYCATTFHSFLPLCRKPVKKKDIFVAVKTCKKFHGDRIPIVKQTWESQASLIEYYSDYTENSIPTVDLGIPNTDRGHCGKTFAILERFLNRSQDKTAWLVIVDDDTLISISRLQHLLSCYDSGEPVFLGERYGYGLGTGGYSYITGGGGMVFSREAVRRLLASKCRCYSNDAPDDMVLGMCFSGLGIPVTHSPLFHQARPVDYPKDYLSHQVPISFHKHWNIDPVKVYFTWLAPSDEDKARQETQKGFREEL [B3GLCT]”, the figures for the thermal stability score in the data set with HeLa Kyoto [1] (setting [4]) and in the data set on HeLa Kyoto [1] (cell cycle stage: mitosis) were 1.99 and 2.59, respectively. For the same substance, the “solubility change mitosis (log2)” value with HeLa Kyoto [2] was -0.0692. In the data set on HeLa Kyoto [3], the “solubility in G1/S (log2)” value turned out to be 0.0765.
On the same counts, the results for DYNC2H1 are 0.756, 0.972, 0.0553 and -0.273.
On to “MGLSAAAPLWGPPGLLLAIALHPALSVPPRRDYCVLGAGPAGLQMAYFLQRAGRDYAVFERAPRPGSFFTRYPRHRKLISINKRYTGKANAEFNLRHDWNSLLSHDPRLLFRHYSRAYFPDARDMVRYLGDFADTLGLRVQYNTTIAHVTLDKDRQAWNGHYFILTDQKGQVHQCSVLFVATGLSVPNQVDFPGSEYAEGYESVSVDPEDFVGQNVLILGRGNSAFETAENILGVTNFIHMLSRSRVRLSWATHYVGDLRAINNGLLDTYQLKSLDGLLESDLTDLAILKDSKGKFHVTPKFFLEEANTNQSADSITLPQDDNDNFAMRVPYDRVIRCLGWNFDFSIFNKSLRLNSGNAFGKKYPLIRASYESKGSRGLFILGTASHSVDYRKSAGGFIHGFRYTVRAVHRLLEHRHHSVTWPATELPITQLTSSIVRRVNEASGLYQMFGVLADVILLKENSTAFEYLEEFPIQMLAQLETLTGRKAKHGLFVINMEYGRNFSGPDKDVFFDDRSVGHTEDAWQSNFLHPVIYYYRYLPTEQEVRFRPAHWPLPRPTAIHHIVEDFLTDWTAPIGHILPLRRFLENCLDTDLRSFYAESCFLFALTRQKLPPFCQQGYLRMQGLVSTESLWQHRVESRLLRDYAPTGRRLEDSSQQLGDQEPLGSPLAPGPLAQSVDSNKEEL [FOXRED2]”, for which the thermal stability score in the data set on HeLa Kyoto [1] (setting [4]) worked out at 0.289; in the data set on HeLa Kyoto [1] (cell cycle stage: mitosis) it was 1.28. Besides, in the data set with HeLa Kyoto [2], the “solubility change mitosis (log2)” value came out at 0.00992. The “solubility in G1/S (log2)” value in the data set with HeLa Kyoto [3] is -0.0337.
For “MPGRSSSNSGSTGFISFSGVESALSSLKNFQACINSGMDTASSVALDLVESQTEVSSEYSMDKAMVEFATLDRQLNHYVKAVQSTINHVKEERPEKIPDLKLLVEKKFLALQSKNSDADFQNNEKFVQFKQQLKELKKQCGLQADREADGTEGVDEDIIVTQSQTNFTCPITKEEMKKPVKNKVCGHTYEEDAIVRMIESRQKRKKKAYCPQIGCSHTDIRKSDLIQDEALRRAIENHNKKRHRHSE [NSMCE2]”, in that order: -0.691, -0.266, 0.0514 and -0.0327.
On the same counts, the results for “MAAVLESLLREEVSVAAVVRWIARSTQGSEDNAGEAAALSSLRALRKEFVPFLLNFLREQSSRVLPQGPPTPAKTPGASAALPGRPGGPPRGSRGARSQLFPPTEAQSTAAEAPLARRGGRRRGPGPARERGGRGLEEGVSGESLPGAGGRRLRGSGSPSRPSLTLSDPPNLSNLEEFPPVGSVPPGPTGTKPSRRINPTPVSEERSLSKPKTCFTSPPISCVPSSQPSALDTSPWGLGLPPGCRSLQEEREMLRKERSKQLQQSPTPTCPTPELGSPLPSRTGSLTDEPADPARVSSRQRLELVALVYSSCIAENLVPNLFLELFFVFQLLTARRMVTAKDSDPELSPAVLDSLESPLFQSIHDCVFFAVQVLECHFQVLSNLDKGTLKLLAENERLLCFSPALQGRLRAAYEGSVAKVSLVMPPSTQAVSFQPETDNRANFSSDRAFHTFKKQRDVFYEVLREWEDHHEEPGWDFEKGLGSRIRAMMGQLSAACSHSHFVRLFQKQLLQMCQSPGGAGGTVLGEAPDVLSMLGADKLGRLWRLQERLMAPQSSGGPCPPPTFPGCQGFFRDFILSASSFQFNQHLMDSLSLKIQELNGLALPQHEPNDEDGESDVDWQGERKQFAVVLLSLRLLAKFLGFVAFLPYRGPEPPPTGELQDSILALRSQVPPVLDVRTLLQRGLQARRAVLTVPWLVEFLSFADHVVPLLEYYRDIFTLLLRLHRSLVLSQESEGKMCFLNKLLLLAVLGWLFQIPTVPEDLFFLEEGPSYAFEVDTVAPEHGLDNAPVVDQQLLYTCCPYIGELRKLLASWVSGSSGRSGGFMRKITPTTTTSLGAQPSQTSQGLQAQLAQAFFHNQPPSLRRTVEFVAERIGSNCVKHIKATLVADLVRQAESLLQEQLVTQGEEGGDPAQLLEILCSQLCPHGAQALALGREFCQRKSPGAVRALLPEETPAAVLSSAENIAVGLATEKACAWLSANITALIRREVKAAVSRTLRAQGPEPAARGERRGCSRACEHHAPLPSHLISEIKDVLSLAVGPRDPDEGVSPEHLEQLLGQLGQTLRCRQFLCPPAEQHLAKCSVELASLLVADQIPILGPPAQYRLERGQARRLLHMLLSLWKEDFQGPVPLQLLLSPRNVGLLADTRPREWDLLLFLLRELVEKGLMGRMEIEACLGSLHQAQWPGDFAEELATLSNLFLAEPHLPEPQLRACELVQPNRGTVLAQS [CDAN1]” are 0.128, -0.765, 0.117 and 0.0358.
For PIKFYVE, in that order: 0.473, 0.726, -0.153 and -0.0952.
Consider VPS13D, for which the thermal stability score in the data set on HeLa Kyoto [1] (setting [4]) is 0.236; with HeLa Kyoto [1] (cell cycle stage: mitosis) it was -0.0982. The “solubility change mitosis (log2)” value in the data set with HeLa Kyoto [2] is -0.104. Further, the “solubility in G1/S (log2)” value in the data set on HeLa Kyoto [3] is -0.404.
